From US20130345294 come the findings set out here.

This data set has as its target GAVP(N56K+C71V) N56K,C71V (VIVID numbering) (artificial) (UniProt Q04206). The data set can be described thus: cell_activity.
Chain of UniProt Q04206 (Q04206 whole entry, stated change not applied): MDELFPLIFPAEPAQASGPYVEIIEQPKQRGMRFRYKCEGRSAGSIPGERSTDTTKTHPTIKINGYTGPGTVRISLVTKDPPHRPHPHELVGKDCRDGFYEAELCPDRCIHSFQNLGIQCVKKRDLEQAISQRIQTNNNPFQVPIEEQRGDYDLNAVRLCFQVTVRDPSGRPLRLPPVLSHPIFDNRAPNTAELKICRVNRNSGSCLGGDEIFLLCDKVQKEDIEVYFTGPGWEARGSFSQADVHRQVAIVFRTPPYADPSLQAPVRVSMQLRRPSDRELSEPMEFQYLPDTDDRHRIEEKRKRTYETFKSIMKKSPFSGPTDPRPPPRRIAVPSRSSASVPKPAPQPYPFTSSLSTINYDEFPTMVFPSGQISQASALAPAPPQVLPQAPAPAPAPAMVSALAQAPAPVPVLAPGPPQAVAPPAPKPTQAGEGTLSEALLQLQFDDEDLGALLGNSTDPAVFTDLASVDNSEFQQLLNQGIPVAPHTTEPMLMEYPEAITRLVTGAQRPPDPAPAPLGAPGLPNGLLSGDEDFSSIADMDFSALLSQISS

For the setting “HEK293, Gluc after 12 h light, 30-fold after 3 h”, “TCTAGACGGAGTACTGTCCTCCGAGCGGAGTACTGTCCTCCGACTCGAGCGGAGTACTGTCCTCCGATCGGAGTACTGTCCTCCGCGAATTCCGGAGTACTGTCCTCCGAAGACGCTAGCGGGGGGCTATAAAAGGGGGTGGGGGCGTTCGTCCTCACTCTAGATCTGCGATCTAAGTAAGCTTGGCCACCATGGGAGTCAAAGTTCTGTTTGCCCTGATCTGCATCGCTGTGGCCGAGGCCAAGCCCACCGAGAACAACGAAGACTTCAACATCGTGGCCGTGGCCAGCAACTTCGCGACCACGGATCTCGATGCTGACCGCGGGAAGTTGCCCGGCAAGAAGCTGCCGCTGGAGGTGCTCAAAGAGATGGAAGCCAATGCCCGGAAAGCTGGCTGCACCAGGGGCTGTCTGATCTGCCTGTCCCACATCAAGTGCACGCCCAAGATGAAGAAGTTCATCCCAGGACGCTGCCACACCTACGAAGGCGACAAAGAGTCCGCACAGGGCGGCATAGGCGAGGCGATCGTCGACATTCCTGAGATTCCTGGGTTCAAGGACTTGGAGCCCATGGAGCAGTTCATCGCACAGGTCGATCTGTGTGTGGACTGCACAACTGGCTGCCTCAAAGGGCTTGCCAACGTGCAGTGTTCTGACCTGCTCAAGAAGTGGCTGCCGCAACGCTGTGCGACCTTTGCCAGCAAGATCCAGGGCCAGGTGGACAAGATCAAGGGGGCCGGTGGTGACTAA (double strand) [5xUASG-TATA-Gluc]” showed an activity of 100 fold.

5xUASG-TATA-Fluc came in with an activity (HEK293 light/dark induction, also active in NIH3T3 and COS-7) of 200 fold.
